According to article PMC3481350:

Target: Deg2 protease (Arabidopsis thaliana), mature Deg2 (Arabidopsis thaliana)
Assay: SEC + other: dynamic light scattering

stoichiometry N: 6
Substance: Deg2 protease (Arabidopsis thaliana), mature Deg2 (enzyme)
